B1: PKD2L1 (parent)
chain: TLARCAKDILGFAVMFFIVFFAYA

Variants of: B1
Assay: protein stability index of a GFP-peptide fusion (GPS, HEK-293T) (PSI 1-6); higher = more stable
Conditions: c terminus: a fixed tail appended
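Further: lentivirally expressed fusions sorted by FACS into six bins by GFP to DsRed ratio, PSI derived from sequencing read proportions per bin multiplied by bin number.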

Question: With TLARTAKDILGFAVMFFIVFFAYA as the variant, how does the protein stability index read?
Answer: Its protein stability index is 4.06.

Question: Which protein stability index does the source give for TLARQAKDILGFAVMFFIVFFAYA here?
Answer: Its protein stability index is 2.29.

Question: For TLARLAKDILGFAVMFFIVFFAYA, which protein stability index is on record?
Answer: The protein stability index was 2.78.

Question: With TLARMAKDILGFAVMFFIVFFAYA as the variant, how does the protein stability index read?
Answer: Its protein stability index is 3.55.

Question: For TLARSAKDILGFAVMFFIVFFAYA, which protein stability index is on record?
Answer: Its protein stability index is 2.27.

Question: For TLARYAKDILGFAVMFFIVFFAYA, which protein stability index is on record?
Answer: Its protein stability index is 2.22.

Question: With TLARIAKDILGFAVMFFIVFFAYA as the variant, how does the protein stability index read?
Answer: The protein stability index was 3.

Question: For TLARDAKDILGFAVMFFIVFFAYA, which protein stability index is on record?
Answer: The protein stability index was 2.61.

Question: Which protein stability index does the source give for TLARAAKDILGFAVMFFIVFFAYA here?
Answer: Its protein stability index is 2.49.

Question: With TLARHAKDILGFAVMFFIVFFAYA as the variant, how does the protein stability index read?
Answer: The protein stability index was 1.6.

Question: With TLARRAKDILGFAVMFFIVFFAYA as the variant, how does the protein stability index read?
Answer: The protein stability index was 2.01.

Question: With TLARVAKDILGFAVMFFIVFFAYA as the variant, how does the protein stability index read?
Answer: The protein stability index was 2.5.

Question: For TLAREAKDILGFAVMFFIVFFAYA, which protein stability index is on record?
Answer: The protein stability index was 2.09.

Question: For TLARPAKDILGFAVMFFIVFFAYA, which protein stability index is on record?
Answer: Its protein stability index is 1.71.

Question: Which protein stability index does the source give for TLARKAKDILGFAVMFFIVFFAYA here?
Answer: Its protein stability index is 2.48.

Question: For TLARFAKDILGFAVMFFIVFFAYA, which protein stability index is on record?
Answer: Its protein stability index is 4.37.

Question: With TLARNAKDILGFAVMFFIVFFAYA as the variant, how does the protein stability index read?
Answer: Its protein stability index is 1.9.

Question: Which protein stability index does the source give for TLARGAKDILGFAVMFFIVFFAYA here?
Answer: The protein stability index was 2.59.

Question: Which protein stability index does the source give for WLARCAKDILGFAVMFFIVFFAYA here?
Answer: Its protein stability index is 1.62.

Question: For DLARCAKDILGFAVMFFIVFFAYA, which protein stability index is on record?
Answer: Its protein stability index is 2.96.

Question: Which protein stability index does the source give for ALARCAKDILGFAVMFFIVFFAYA here?
Answer: Its protein stability index is 2.36.

Question: Which protein stability index does the source give for NLARCAKDILGFAVMFFIVFFAYA here?
Answer: Its protein stability index is 2.67.

Question: With SLARCAKDILGFAVMFFIVFFAYA as the variant, how does the protein stability index read?
Answer: The protein stability index was 2.19.

Question: Which protein stability index does the source give for HLARCAKDILGFAVMFFIVFFAYA here?
Answer: Its protein stability index is 2.29.

Question: For MLARCAKDILGFAVMFFIVFFAYA, which protein stability index is on record?
Answer: The protein stability index was 4.2.

Question: With CLARCAKDILGFAVMFFIVFFAYA as the variant, how does the protein stability index read?
Answer: The protein stability index was 2.98.

Question: Which protein stability index does the source give for RLARCAKDILGFAVMFFIVFFAYA here?
Answer: The protein stability index was 1.72.

Question: With ILARCAKDILGFAVMFFIVFFAYA as the variant, how does the protein stability index read?
Answer: The protein stability index was 2.

Question: Which protein stability index does the source give for FLARCAKDILGFAVMFFIVFFAYA here?
Answer: Its protein stability index is 3.18.

Question: With KLARCAKDILGFAVMFFIVFFAYA as the variant, how does the protein stability index read?
Answer: Its protein stability index is 3.97.

Question: With VLARCAKDILGFAVMFFIVFFAYA as the variant, how does the protein stability index read?
Answer: Its protein stability index is 2.81.

Question: Which protein stability index does the source give for LLARCAKDILGFAVMFFIVFFAYA here?
Answer: Its protein stability index is 2.

Question: Which protein stability index does the source give for PLARCAKDILGFAVMFFIVFFAYA here?
Answer: Its protein stability index is 2.03.

Question: Which protein stability index does the source give for TSARCAKDILGFAVMFFIVFFAYA here?
Answer: The protein stability index was 2.73.

Question: Which protein stability index does the source give for TTARCAKDILGFAVMFFIVFFAYA here?
Answer: Its protein stability index is 4.12.

Question: Which protein stability index does the source give for TEARCAKDILGFAVMFFIVFFAYA here?
Answer: Its protein stability index is 2.8.

Question: Which protein stability index does the source give for TQARCAKDILGFAVMFFIVFFAYA here?
Answer: Its protein stability index is 3.4.

Question: Which protein stability index does the source give for THARCAKDILGFAVMFFIVFFAYA here?
Answer: The protein stability index was 2.35.

Question: With TWARCAKDILGFAVMFFIVFFAYA as the variant, how does the protein stability index read?
Answer: Its protein stability index is 1.67.

Question: With TVARCAKDILGFAVMFFIVFFAYA as the variant, how does the protein stability index read?
Answer: The protein stability index was 1.24.

Question: For TGARCAKDILGFAVMFFIVFFAYA, which protein stability index is on record?
Answer: The protein stability index was 3.03.

Question: Which protein stability index does the source give for TYARCAKDILGFAVMFFIVFFAYA here?
Answer: Its protein stability index is 2.51.

Question: For TAARCAKDILGFAVMFFIVFFAYA, which protein stability index is on record?
Answer: The protein stability index was 3.81.

Question: For TPARCAKDILGFAVMFFIVFFAYA, which protein stability index is on record?
Answer: The protein stability index was 3.29.

Question: Which protein stability index does the source give for TNARCAKDILGFAVMFFIVFFAYA here?
Answer: Its protein stability index is 2.5.

Question: Which protein stability index does the source give for TRARCAKDILGFAVMFFIVFFAYA here?
Answer: Its protein stability index is 3.68.

Question: With TDARCAKDILGFAVMFFIVFFAYA as the variant, how does the protein stability index read?
Answer: The protein stability index was 3.71.

Question: Which protein stability index does the source give for TCARCAKDILGFAVMFFIVFFAYA here?
Answer: The protein stability index was 3.44.

Question: Which protein stability index does the source give for TKARCAKDILGFAVMFFIVFFAYA here?
Answer: The protein stability index was 1.84.

Question: With TMARCAKDILGFAVMFFIVFFAYA as the variant, how does the protein stability index read?
Answer: Its protein stability index is 3.8.

Question: Which protein stability index does the source give for TLIRCAKDILGFAVMFFIVFFAYA here?
Answer: Its protein stability index is 4.3.

Question: With TLVRCAKDILGFAVMFFIVFFAYA as the variant, how does the protein stability index read?
Answer: Its protein stability index is 1.94.

Question: Which protein stability index does the source give for TLRRCAKDILGFAVMFFIVFFAYA here?
Answer: Its protein stability index is 1.81.

Question: For TLKRCAKDILGFAVMFFIVFFAYA, which protein stability index is on record?
Answer: The protein stability index was 2.74.

Question: Which protein stability index does the source give for TLYRCAKDILGFAVMFFIVFFAYA here?
Answer: The protein stability index was 4.87.

Question: With TLNRCAKDILGFAVMFFIVFFAYA as the variant, how does the protein stability index read?
Answer: The protein stability index was 1.53.

Question: For TLWRCAKDILGFAVMFFIVFFAYA, which protein stability index is on record?
Answer: The protein stability index was 1.87.

Question: With TLDRCAKDILGFAVMFFIVFFAYA as the variant, how does the protein stability index read?
Answer: Its protein stability index is 2.56.

Question: For TLTRCAKDILGFAVMFFIVFFAYA, which protein stability index is on record?
Answer: Its protein stability index is 3.62.

Question: With TLQRCAKDILGFAVMFFIVFFAYA as the variant, how does the protein stability index read?
Answer: The protein stability index was 2.7.

Question: With TLLRCAKDILGFAVMFFIVFFAYA as the variant, how does the protein stability index read?
Answer: The protein stability index was 1.75.

Question: Which protein stability index does the source give for TLERCAKDILGFAVMFFIVFFAYA here?
Answer: Its protein stability index is 3.11.

Question: For TLPRCAKDILGFAVMFFIVFFAYA, which protein stability index is on record?
Answer: The protein stability index was 2.64.

Question: With TLHRCAKDILGFAVMFFIVFFAYA as the variant, how does the protein stability index read?
Answer: Its protein stability index is 2.4.

Question: For TLGRCAKDILGFAVMFFIVFFAYA, which protein stability index is on record?
Answer: The protein stability index was 1.71.

Question: With TLCRCAKDILGFAVMFFIVFFAYA as the variant, how does the protein stability index read?
Answer: Its protein stability index is 2.83.

Question: Which protein stability index does the source give for TLARCVKDILGFAVMFFIVFFAYA here?
Answer: Its protein stability index is 2.95.

Question: With TLARCTKDILGFAVMFFIVFFAYA as the variant, how does the protein stability index read?
Answer: Its protein stability index is 3.

Question: Which protein stability index does the source give for TLARCYKDILGFAVMFFIVFFAYA here?
Answer: The protein stability index was 3.06.

Question: Which protein stability index does the source give for TLARCHKDILGFAVMFFIVFFAYA here?
Answer: Its protein stability index is 2.59.

Question: Which protein stability index does the source give for TLARCNKDILGFAVMFFIVFFAYA here?
Answer: Its protein stability index is 3.44.

Question: With TLARCWKDILGFAVMFFIVFFAYA as the variant, how does the protein stability index read?
Answer: Its protein stability index is 2.75.

Question: Which protein stability index does the source give for TLARCFKDILGFAVMFFIVFFAYA here?
Answer: Its protein stability index is 2.64.

Question: With TLARCMKDILGFAVMFFIVFFAYA as the variant, how does the protein stability index read?
Answer: Its protein stability index is 2.09.

Question: Which protein stability index does the source give for TLARCKKDILGFAVMFFIVFFAYA here?
Answer: The protein stability index was 3.02.

Question: Which protein stability index does the source give for TLARCLKDILGFAVMFFIVFFAYA here?
Answer: Its protein stability index is 4.57.

Question: For TLARCPKDILGFAVMFFIVFFAYA, which protein stability index is on record?
Answer: The protein stability index was 3.24.

Question: With TLARCCKDILGFAVMFFIVFFAYA as the variant, how does the protein stability index read?
Answer: Its protein stability index is 2.87.

Question: With TLARCGKDILGFAVMFFIVFFAYA as the variant, how does the protein stability index read?
Answer: The protein stability index was 1.59.

Question: With TLARCEKDILGFAVMFFIVFFAYA as the variant, how does the protein stability index read?
Answer: Its protein stability index is 3.58.

Question: With TLARCIKDILGFAVMFFIVFFAYA as the variant, how does the protein stability index read?
Answer: Its protein stability index is 2.69.

Question: With TLARCAMDILGFAVMFFIVFFAYA as the variant, how does the protein stability index read?
Answer: Its protein stability index is 2.47.

Question: With TLARCAADILGFAVMFFIVFFAYA as the variant, how does the protein stability index read?
Answer: Its protein stability index is 2.16.

Question: Which protein stability index does the source give for TLARCAFDILGFAVMFFIVFFAYA here?
Answer: The protein stability index was 2.78.

Question: For TLARCAHDILGFAVMFFIVFFAYA, which protein stability index is on record?
Answer: Its protein stability index is 3.13.

Question: For TLARCAGDILGFAVMFFIVFFAYA, which protein stability index is on record?
Answer: The protein stability index was 2.45.

Question: For TLARCAEDILGFAVMFFIVFFAYA, which protein stability index is on record?
Answer: Its protein stability index is 2.36.

Question: Which protein stability index does the source give for TLARCAPDILGFAVMFFIVFFAYA here?
Answer: The protein stability index was 2.84.

Question: With TLARCARDILGFAVMFFIVFFAYA as the variant, how does the protein stability index read?
Answer: Its protein stability index is 2.29.

Question: With TLARCAVDILGFAVMFFIVFFAYA as the variant, how does the protein stability index read?
Answer: Its protein stability index is 4.08.

Question: Which protein stability index does the source give for TLARCAWDILGFAVMFFIVFFAYA here?
Answer: The protein stability index was 2.57.

Question: Which protein stability index does the source give for TLARCAYDILGFAVMFFIVFFAYA here?
Answer: The protein stability index was 3.79.

Question: Which protein stability index does the source give for TLARCADDILGFAVMFFIVFFAYA here?
Answer: Its protein stability index is 3.17.

Question: For TLARCAQDILGFAVMFFIVFFAYA, which protein stability index is on record?
Answer: Its protein stability index is 3.71.

From the supplement of paper PMC10567573
